Assay results as given in patent US8372961B2, “Polynucleotides encoding concatameric immunoadhesion molecules” (Medexgen Co., Ltd., priority 2001, dated 2013).

Columns and labels:
TNFα = TNFα (Homo sapiens, UniProt P01375); experiment: Neutralization of TNFα cytotoxicity on L929 cells (crystal violet staining); assay type: cell-based; conditions: for IC50 of cytotoxicity inhibition, TNFα treated: actinomycin D 3 μg/ml, TNFα 0.5~2 ng/ml (100% cytotoxicity), 16~18 hrs
Protocol: (§1) An L929 cell [ATCC, Mus musculus (mouse), NCTC clone 929 (derivative of strain L; L-929; L cell) was used for testing the effect of TNFR/Fc fusion protein on the inhibition of cytotoxicity induced by TNFα and TNFβ. This analysis was based on the TNFR activity of inhibiting cytotoxicity induced by TNF (Scallon et al., Cytokine 7:759, 1995).
(§2) L929 cells were inoculated to be 3×10^4 cells/well in 96-well plates, and incubated at 37° C. for 24 hrs in a CO2 incubator. Subsequently, actinomycin D (Sigma, USA) was added to 3 μg/ml, and cells were incubated for 16˜18 hrs with TNFα and TNFβ in the concentration of expressing 100% cytotoxicity (0.5˜2 ng/ml), and with serially 10 times diluted TNFR sample. Then, the cells in the 96-well plate were stained by the staining reagent, crystal violet (Wake Pure Chemical Industries, Japan) and the activity of the cells was estimated by the degree of absorbance at 595 nm wavelength using a spectrophotometer (Bio-Rad, Model-550, Japan).

TNFβ = target: T1, TNFβ (Homo sapiens, UniProt P01374); experiment: Neutralization of TNFβ cytotoxicity on L929 cells (crystal violet staining); assay type: cell-based; conditions: for IC50 of cytotoxicity inhibition, TNFβ treated: actinomycin D 3 μg/ml, TNFβ 0.5~2 ng/ml (100% cytotoxicity), 16~18 hrs
T1 sequence (P01374 35-205): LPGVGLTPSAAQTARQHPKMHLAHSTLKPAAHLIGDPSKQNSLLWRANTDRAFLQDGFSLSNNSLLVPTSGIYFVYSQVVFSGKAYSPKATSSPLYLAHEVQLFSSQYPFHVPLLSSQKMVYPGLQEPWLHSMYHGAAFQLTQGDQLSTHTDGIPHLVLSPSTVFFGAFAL
Protocol: as §1, §2

Chain of TNFα (P01375 77-233 limits assumed, species assumed): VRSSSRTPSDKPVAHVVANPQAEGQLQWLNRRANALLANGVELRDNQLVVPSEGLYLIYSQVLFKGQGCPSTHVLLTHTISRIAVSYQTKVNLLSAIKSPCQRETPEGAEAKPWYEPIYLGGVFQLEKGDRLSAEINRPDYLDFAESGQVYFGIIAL

[TNFR1/Fc]2: conventional simple fusion dimeric protein: soluble extracellular domain of human TNFR1 fused to IgG1 Fc; monomer SEQ ID NO: 2 [reference compound]
IC50 of cytotoxicity inhibition, TNFα treated (TNFα): 63 µg/mL | IC50 of cytotoxicity inhibition, TNFβ treated (TNFβ): 129 µg/mL

[TNFR1-TNFR1/Fc]2: concatameric fusion dimeric protein: two TNFR1 soluble extracellular domains in tandem fused to IgG1 Fc; monomer SEQ ID NO: 6
IC50 of cytotoxicity inhibition, TNFα treated (TNFα): 9 µg/mL | inhibitory effect on the cytotoxicity induced by TNFα, compared with simple dimeric fusion proteins (TNFα; versus TNFR1/Ig and TNFR2/Ig): higher inhibitory effect | IC50 of cytotoxicity inhibition, TNFβ treated (TNFβ): 20 µg/mL | inhibitory effect on the cytotoxicity induced by TNFβ, compared with simple dimeric fusion proteins (TNFβ; versus TNFR1/Ig and TNFR2/Ig): higher inhibitory effect
